Experimental data from publication PMC2615621 (Nucleic Acids Research, 2008).
Like-named read-outs stand apart in the source and are kept apart here.

Legend:
Assay in all cases: native gel or EMSA
[1] = biological target: …3 (SEP3), full-length, in vitro translated (Arabidopsis thaliana) (UniProt O22456)
[2] = biological target: …3 (SEP3), full-length, in vitro translated (Arabidopsis thaliana) (UniProt O22456); remark: listed apart in the source
native gel or EMSA [3] = biological target: the molecule itself
native gel or EMSA [4] = biological target: the molecule itself; remark: listed apart in the source

Row | Molecule | stoichiometry N [1] | apparent Kd1/Kd2 (cooperativity of two dimers on DNA) [2] | stoichiometry N [2] | stoichiometry N (native gel or EMSA [3]) | apparent Kd1/Kd2 (cooperativity of two dimers on DNA) (native gel or EMSA [4])
1 | …3 (SEP3), full-length, in vitro translated (from UniProt O22456 1-251) (natural protein) | 4 | 83 | 2 | – | –
2 | SEP3ΔC, C-terminally truncated SEP3, in vitro translated (domain or fragment, 35S-methionine in some experiments) MGRGRVELKRIENKINRQVTFAKRRNGLLKKAYELSVLCDAEVALIIFSNRGKLYEFCSSSSMLRTLERYQKCNYGAPEPNVPSREALAVELSSQQEYLKLKERYDALQRTQRNLLGEDLGPLSTKELESLERQLDSSLKQIRALRTQFMLDQLNDLQSKERMLTETNKTLRLRLADGYQMPLQLNPN | – | – | – | 2 | 89
